Experimental data as given in paper doi:10.1101/498865 (2018).

Tests used:
[1] = biological target: T1, Cam1 (fission yeast calmodulin), amino-terminally acetylated (S. pombe, UniProt P05933 1-150, amino-terminal (Nt) acetylation); assay: FRET; second site (Kd2)
[2] = biological target: T1, Cam1 (fission yeast calmodulin), …; assay: FRET; first site (Kd1; <0.1 uM)
[3] = biological target: T1, Cam1 (fission yeast calmodulin), …; assay: FRET

T1 sequence (P05933 whole entry): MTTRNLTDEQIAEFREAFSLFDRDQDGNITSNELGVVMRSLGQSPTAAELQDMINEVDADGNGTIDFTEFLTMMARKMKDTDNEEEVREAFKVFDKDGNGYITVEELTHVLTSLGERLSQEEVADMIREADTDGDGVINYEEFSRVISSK

Row | Kd [1] [nM] | Kd [2] [nM] | Kd [3] [nM] | Binder
1 | 540 | 90 | – | CyPet-DTMATRIQRAWRSYVRRRDEAAACIQKLWNRNKVNMELERVRNEGTK-YPet (domain or fragment, not fully specified) [CyPet-Myo1^IQ12-S742D-YPet FRET reporter protein]
2 | – | – | 60 | DTMATRIQRAWRSYVRRRSEA (domain or fragment) [CyPet-Myo1^IQ1-YPet FRET reporter protein]
3 | – | 40 | – | DTMATRIQRAWRSYVRRRSEAAACIQKLWNRNKVNMELERVRNEGTK (domain or fragment) [CyPet-Myo1^IQ12-YPet FRET reporter protein]
